# Experimental data: the Immune Epitope Database (IEDB)
# Legend:
# HLA-A*02:01 [1] = experiment: IEDB peptide-MHC binding, purified MHC/competitive/radioactivity; filed as Kd, often an IC50 or EC50 that approximates it; ≥ and ≤ were set here for values at or beyond the usual limits of such assays
# HLA-A*02:17 = experiment: as above
# HLA-A*02:06 = experiment: as above
# HLA-A*02:03 = experiment: as above
# HLA-A*68:02 = experiment: as above
# HLA-A*02:02 = experiment: as above
# HLA-A*30:01 = experiment: as above
# HLA-B*08:01 [2] = experiment: as above
# HLA-A*32:01 = experiment: as above
# HLA-B*15:03 = experiment: as above
# HLA-B*15:01 [3] = experiment: as above
# HLA-A*11:01 = experiment: IEDB peptide-MHC binding, purified MHC/direct/fluorescence; filed as Kd, often an IC50 or EC50 that approximates it; ≥ and ≤ were set here for values at or beyond the usual limits of such assays
# HLA-B*07:02 [4] = experiment: as above
# HLA-B*40:01 = experiment: as above
# HLA-A*24:03 = experiment: as above
# HLA-A*03:01 = experiment: as above
# HLA-B*08:01 [5] = experiment: as above
# HLA-A*69:01 = experiment: as above
# HLA-B*44:02 = experiment: as above
# HLA-A*01:01 = experiment: as above
# HLA-A*26:01 = experiment: as above
# HLA-B*27:05 = experiment: as above
# HLA-B*58:01 = experiment: as above
# HLA-B*15:01 [6] = experiment: as above
# HLA-A*31:01 = experiment: as above
# HLA-A*02:01 [7] = experiment: as above
# HLA-A*23:01 = experiment: IEDB peptide-MHC binding, purified MHC/competitive/radioactivity; filed as Kd, often an IC50 or EC50 that approximates it; ≥ and ≤ were set here for values at or beyond the usual limits of such assays
# HLA-A*24:02 = experiment: as above; details: source organism: Dengue virus 4 Philippines/H241/1956
# HLA-B*18:01 = experiment: IEDB peptide-MHC binding, purified MHC/competitive/fluorescence; filed as Kd, often an IC50 or EC50 that approximates it; ≥ and ≤ were set here for values at or beyond the usual limits of such assays; details: source organism: Human herpesvirus 5 strain Towne
# HLA-B*51:01 = experiment: as above; details: source organism: Human herpesvirus 5 strain Towne
# HLA-B*57:01 = experiment: as above; details: source organism: Human herpesvirus 5 strain Towne
# HLA-B*15:01 [8] = experiment: as above; details: source organism: Human herpesvirus 5 strain Towne
# HLA-B*39:01 = experiment: as above; details: source organism: Human herpesvirus 5 strain Towne
# HLA-B*07:02 [9] = experiment: IEDB peptide-MHC binding, purified MHC/competitive/radioactivity; filed as Kd, often an IC50 or EC50 that approximates it; ≥ and ≤ were set here for values at or beyond the usual limits of such assays; details: source organism: Dengue virus 4 Philippines/H241/1956
# [10] = source organism: Dengue virus 2 Jamaica/1409/1983
# [11] = source organism: Trypanosoma cruzi
# [12] = source organism: Dengue virus 3 Martinique/1243/1999
# [13] = source organism: Dengue virus 3 Sri Lanka/1266/2000
# [14] = source organism: Vaccinia virus WR
# [15] = source organism: Dengue virus 3 China/80-2/1980
# [16] = source organism: Neisseria gonorrhoeae
# [17] = source organism: Vibrio parahaemolyticus
# [18] = source organism: Vibrio vulnificus
# [19] = source organism: Dengue virus 1 Brazil/97-11/1997
# [20] = source organism: Dengue virus 1 Singapore/S275/1990
# [21] = source organism: Vaccinia virus Copenhagen
# [22] = source organism: Dengue virus 4 Philippines/H241/1956
# [23] = source organism: Giardia lamblia ATCC 50803
sequence,measurement,setting,value
ALYGSVPVL,Kd,HLA-A*02:01 [1]; source organism: Homo sapiens,8.1 nM
DLMCHATFTM,Kd,HLA-A*02:17; [10],≥ 70400 nM
same,Kd,HLA-A*02:01 [1]; [10],209 nM
DTMRPTTVV,Kd,HLA-A*02:06; [11],3040 nM
same,Kd,HLA-A*02:03; [11],4630 nM
same,Kd,HLA-A*68:02; [11],1.38 nM
same,Kd,HLA-A*02:02; [11],≥ 28900 nM
same,Kd,HLA-A*02:01 [1]; [11],≥ 83300 nM
ELADKVTKL,Kd,HLA-A*02:06; source organism: Homo sapiens,≥ 38800 nM
same,Kd,HLA-A*02:03; source organism: Homo sapiens,114 nM
same,Kd,HLA-A*68:02; source organism: Homo sapiens,3.18 nM
same,Kd,HLA-A*02:02; source organism: Homo sapiens,33.2 nM
same,Kd,HLA-A*02:01 [1]; source organism: Homo sapiens,2510 nM
EMIQLQEEL,Kd,HLA-A*02:02; source organism: Homo sapiens,123 nM
same,Kd,HLA-A*02:01 [1]; source organism: Homo sapiens,3100 nM
FAGKTVWFV,Kd,HLA-A*02:06; [12],39.5 nM
same,Kd,HLA-A*02:17; [13],293 nM
FIRYRMHPM,Kd,HLA-A*30:01; [14],2790 nM
same,Kd,HLA-B*08:01 [2]; [14],0.208 nM
same,Kd,HLA-A*32:01; [14],14300 nM
same,Kd,HLA-B*15:03; [14],21.6 nM
same,Kd,HLA-B*15:01 [3]; [14],1.22 nM
FMMVLLIPEP,Kd,HLA-A*02:06; [12],124 nM
same,Kd,HLA-A*02:17; [15],5730 nM
same,Kd,HLA-A*02:01 [1]; [15],93.1 nM
GLDVLTAKV,Kd,HLA-A*02:01 [1]; source organism: Homo sapiens,132 nM
GLLTVCYVL,Kd,HLA-A*02:17; [10],802 nM
GSDKQVVGQ,Kd,HLA-A*11:01; [16],≥ 20000 nM
same,Kd,HLA-B*07:02 [4]; [16],≥ 20000 nM
same,Kd,HLA-B*40:01; [16],≥ 20000 nM
same,Kd,HLA-A*24:03; [16],≥ 20000 nM
same,Kd,HLA-A*03:01; [16],≥ 20000 nM
same,Kd,HLA-B*08:01 [5]; [16],≥ 20000 nM
same,Kd,HLA-A*69:01; [16],≥ 20000 nM
same,Kd,HLA-B*44:02; [16],≥ 20000 nM
same,Kd,HLA-A*01:01; [16],≥ 20000 nM
same,Kd,HLA-A*26:01; [16],≥ 20000 nM
same,Kd,HLA-B*27:05; [16],≥ 20000 nM
same,Kd,HLA-B*58:01; [16],≥ 20000 nM
same,Kd,HLA-B*15:01 [6]; [16],≥ 20000 nM
same,Kd,HLA-A*31:01; [16],≥ 20000 nM
same,Kd,HLA-A*02:01 [7]; [16],≥ 20000 nM
ILLRKGHVF,Kd,HLA-A*11:01; [17],≥ 20000 nM
same,Kd,HLA-B*07:02 [4]; [18],10000 nM
same,Kd,HLA-B*40:01; [17],≥ 20000 nM
same,Kd,HLA-A*24:03; [18],4280 nM
same,Kd,HLA-A*03:01; [17],≥ 20000 nM
same,Kd,HLA-B*08:01 [5]; [18],107 nM
same,Kd,HLA-A*69:01; [17],≥ 20000 nM
same,Kd,HLA-B*44:02; [17],≥ 20000 nM
same,Kd,HLA-A*01:01; [17],≥ 20000 nM
same,Kd,HLA-A*26:01; [17],≥ 20000 nM
same,Kd,HLA-B*27:05; [17],≥ 20000 nM
same,Kd,HLA-B*58:01; [17],≥ 20000 nM
same,Kd,HLA-B*15:01 [6]; [18],115 nM
same,Kd,HLA-A*31:01; [17],≥ 20000 nM
same,Kd,HLA-A*02:01 [7]; [17],≥ 20000 nM
ITKINTHLA,Kd,HLA-A*30:01; [14],14.9 nM
same,Kd,HLA-B*08:01 [2]; [14],≥ 22100 nM
same,Kd,HLA-A*32:01; [14],≥ 77800 nM
same,Kd,HLA-B*15:03; [14],≥ 51400 nM
same,Kd,HLA-B*15:01 [3]; [14],2890 nM
KGKAAAFAK,Kd,HLA-A*30:01; [14],3.12 nM
same,Kd,HLA-B*08:01 [2]; [14],≥ 77700 nM
same,Kd,HLA-A*32:01; [14],≥ 56000 nM
same,Kd,HLA-B*15:03; [14],1900 nM
same,Kd,HLA-B*15:01 [3]; [14],12000 nM
KLVMAFIAF,Kd,HLA-A*23:01; [19],4820 nM
same,Kd,HLA-A*32:01; [19],1180 nM
same,Kd,HLA-B*15:01 [3]; [19],1.39 nM
KLVMAFIAFL,Kd,HLA-A*02:06; [19],11.5 nM
same,Kd,HLA-A*02:17; [20],22.4 nM
same,Kd,HLA-A*02:01 [1]; [20],28.9 nM
KSIEQHPVV,Kd,HLA-A*30:01; [14],2.7 nM
same,Kd,HLA-B*08:01 [2]; [14],11700 nM
same,Kd,HLA-A*32:01; [14],1910 nM
same,Kd,HLA-B*15:03; [14],79.6 nM
same,Kd,HLA-B*15:01 [3]; [14],70.5 nM
KSSPETQQM,Kd,HLA-A*30:01; [14],1130 nM
same,Kd,HLA-B*08:01 [2]; [14],2350 nM
same,Kd,HLA-A*32:01; [14],464 nM
same,Kd,HLA-B*15:03; [14],108 nM
same,Kd,HLA-B*15:01 [3]; [14],30.4 nM
LESQHIISF,Kd,HLA-B*15:03; [21],28.4 nM
same,Kd,HLA-B*15:01 [3]; [21],57.1 nM
LLAGFMAYMI,Kd,HLA-A*02:17; [22],45.7 nM
same,Kd,HLA-A*02:01 [1]; [22],7.04 nM
LLLLVAHYA,Kd,HLA-A*02:17; [10],7930 nM
same,Kd,HLA-A*02:01 [1]; [10],51.9 nM
LLLLVAHYAI,Kd,HLA-A*02:06; [10],53.4 nM
same,Kd,HLA-A*02:17; [10],434 nM
same,Kd,HLA-A*02:01 [1]; [10],97.8 nM
LLMRTTWAF,Kd,HLA-A*24:02,24.4 nM
same,Kd,HLA-A*23:01; [22],75.4 nM
same,Kd,HLA-B*08:01 [2]; [22],54.7 nM
same,Kd,HLA-A*32:01; [22],1.69 nM
same,Kd,HLA-B*15:01 [3]; [22],1.08 nM
LMMILPAAL,Kd,HLA-A*02:03; [13],15.3 nM
same,Kd,HLA-B*08:01 [2]; [13],18.1 nM
same,Kd,HLA-A*02:17; [13],78.4 nM
same,Kd,HLA-B*15:01 [3]; [13],13.6 nM
LMMMLPATLA,Kd,HLA-A*02:03; [15],17.5 nM
same,Kd,HLA-A*02:17; [15],2880 nM
same,Kd,HLA-A*02:01 [1]; [15],13.5 nM
LPLKMLNIPSINVH,Kd,HLA-B*18:01,≥ 20000 nM
same,Kd,HLA-B*51:01,≥ 20000 nM
same,Kd,HLA-B*57:01,≥ 20000 nM
same,Kd,HLA-B*15:01 [8],≥ 20000 nM
same,Kd,HLA-B*39:01,≥ 20000 nM
LQRKHGGSL,Kd,HLA-B*07:02 [9],58.2 nM
same,Kd,HLA-B*08:01 [2]; [22],57.4 nM
same,Kd,HLA-B*15:01 [3]; [22],26.2 nM
LTFKACDHI,Kd,HLA-A*30:01; [14],81.5 nM
same,Kd,HLA-B*08:01 [2]; [14],838 nM
same,Kd,HLA-A*32:01; [14],18800 nM
same,Kd,HLA-B*15:03; [14],845 nM
same,Kd,HLA-B*15:01 [3]; [14],973 nM
QLIPCMDVV,Kd,HLA-A*02:01 [1]; source organism: Triticum aestivum,147 nM
RRLLKFRVE,Kd,HLA-A*30:01; [21],1040 nM
same,Kd,HLA-B*08:01 [2]; [21],128 nM
same,Kd,HLA-A*32:01; [21],≥ 34900 nM
same,Kd,HLA-B*15:03; [21],14900 nM
same,Kd,HLA-B*15:01 [3]; [21],≥ 55000 nM
TLLLLGLMIL,Kd,HLA-B*08:01 [2]; [12],890 nM
same,Kd,HLA-A*02:17; [15],2420 nM
VEGEGLHKL,Kd,HLA-B*44:02; [20],≥ 20000 nM
VIIMAINVF,Kd,HLA-B*15:03; [14],2030 nM
same,Kd,HLA-B*15:01 [3]; [14],26.4 nM
VLLKTALLIV,Kd,HLA-A*02:06; [12],37 nM
same,Kd,HLA-A*02:03; [12],40.1 nM
same,Kd,HLA-A*02:17; [15],2490 nM
WSFLEDRVY,Kd,HLA-A*11:01; [23],≥ 20000 nM
same,Kd,HLA-B*07:02 [4]; [23],≥ 20000 nM
same,Kd,HLA-B*40:01; [23],≥ 20000 nM
same,Kd,HLA-A*24:03; [23],≥ 20000 nM
same,Kd,HLA-A*03:01; [23],≥ 20000 nM
same,Kd,HLA-B*08:01 [5]; [23],≥ 20000 nM
same,Kd,HLA-A*69:01; [23],≥ 20000 nM
same,Kd,HLA-B*44:02; [23],≥ 20000 nM
same,Kd,HLA-A*01:01; [23],2270 nM
same,Kd,HLA-A*26:01; [23],≥ 20000 nM
same,Kd,HLA-B*27:05; [23],≥ 20000 nM
same,Kd,HLA-B*58:01; [23],484 nM
same,Kd,HLA-B*15:01 [6]; [23],42 nM
same,Kd,HLA-A*31:01; [23],≥ 20000 nM
same,Kd,HLA-A*02:01 [7]; [23],≥ 20000 nM
